Legend:
WFYpSPFLE (Pintide) = assay: Fluorescence anisotropy (polarization) binding to fluorescein-labeled phosphorylated Pintide analogue
From the text: To determine the affinity of Pin1, and its WW or PPIase domain for phosphopeptides, peptides were labeled with fluorescein and their interactions with Pin1 measured using quantitative fluorescence anisotrophy. To prevent nonspecific labeling, a Pintide analogue (WFYpSPFLE) SEQ ID NO: 9 was used, which binds Pin1 with a high affinity based on the peptide library screen as described by (Lu, K. P. et al., U.S. Ser. No. 60/058,164 (1997), the teachings of which are incorporated herein in their entirety.
Pintide and its nonphosphorylated counterpart were synthesized and incubated with GST-Pin1 or the GST-WW-domain of Pin1 in a binding buffer, using established procedures (Shen, M. et al., Genes & Dev 12:706 (1998)). After a 1 hr incubation, mitotic HeLa cell extracts were added and subjected to GST pull down experiments, followed by immunoblotting analysis using the MPM-2 antibody. To obtain semi-quantitative data, films of immunoblots were scanned at the region of 55 kDa, the major Pin1-binding protein, and data analyzed using ImageQuan (ScanJet II CX). The peptide binding constants were measured using a fluorescence polarization assay (Jiskoot, W. et al., Anal Biochem 196:421 (1991)). Peptides were fluorescein labeled at the N-terminus using the Fluorescein Amine Labeling Kit (Pan Vera Corp.) and purified by TLC according to the manufacturer's […]. To prevent nonspecific labeling, a Pintide analogue (WFYpSPFLE) SEQ ID NO: 8 and the nonphosphorylated control were used. Various concentrations of Pin1 and its mutant proteins were incubated with 0.1 μM of the labeled peptides in a binding buffer containing 50 mM HEPES, pH 7.4, 100 mM NaCl, 2% glycerol. Fluorescence polarization values were obtained using a Pan Vera Beacon 2000 system, as described by the manufacturer.

[1] = tested on: MPM-2 antigens (mitotic phosphoproteins) of mitotic HeLa cell extracts; assay: GST pulldown from mitotic HeLa cell extracts, MPM-2 immunoblotting (phosphoprotein-binding activity)
Description: GST-fusion proteins containing the WW-domain, PPIase-domain or the entire Pin 1 protein were prepared and incubated with interphase (G1/S arrested; Control) or dividing (M phase) HeLa cell extracts using well-known procedures (Lu, K. P., et al., Nature 380:544 (1996); (Shen, M., et al., Genes & Devl. 12:706 (1998)). Briefly, HeLa cells were arrested at the G1/S boundary or mitosis by incubation with thymidine and aphidicolin or nocodazole for 16 h, respectively. The cells were lysed and supernatants incubated with 10 μl of agarose beads containing GST-Pin1; GST-WW-domain of Pin1; GST-PPIase domain of Pin1; or control GST for 2 h at 4° C. […]
Pintide and its nonphosphorylated counterpart were synthesized and incubated with GST-Pin1 or the GST-WW-domain of Pin1 in a binding buffer, using established procedures (Shen, M. et al., Genes & Dev 12:706 (1998)). […] To obtain semi-quantitative data, films of immunoblots were scanned at the region of 55 kDa, the major Pin1-binding protein, and data analyzed using ImageQuan (ScanJet II CX). The peptide binding constants were measured using a fluorescence polarization assay (Jiskoot, W. et al., Anal Biochem 196:421 (1991)). […] Fluorescence polarization values were obtained using a Pan Vera Beacon 2000 system, as described by the manufacturer. […]

peptide substrate = assay: PPIase activity assay with peptide substrate; assay type: biochemical; details: relative to wild-type protein defined as 100%
phosphorylated tau = assay: GST-Pin1 pulldown of tau; assay type: binding; details: tau phosphorylated by Cdc2 in vitro
From the text: Pin1 binds and regulates the function of a defined subset of mitotic phosphoproteins by interacting with conserved phosphorylated Ser/Thr-Pro motifs that are also recognized by MPM-2, a mitosis-specific, phosphorylation-dependent monoclonal antibody (mAb) (Yaffe, M. B. et al., Science 278:1957-1960 (1997); Shen, M. et al., Genes Dev. 12:706-720 (1 998)). Tau is an MPM-2 antigen phosphorylated on multiple Ser/Thr-Pro motifs during mitosis (Illenberger, S. et al., Mol Biol Cell 9:1495-1512 (1998)). Experiments were undertaken to determine whether Pin1 binds tau. Tau isoform was either synthesized by in vitro transcription and translation in the presence of ^35S-Met or produced in bacteria as an N-terminal His-tagged protein, followed by purification using NTA-Ni columns (Yaffe, M. B. et al., Science 278:1957-1960 (1997); Shen, M. et al., Genes Dev. 12:706-720 (1998)). To generate interphase- and mitosis-specific phosphorylated form of tau, tau was incubated with Xenopus interphase and mitotic extracts, respectively (Shen, M. et al., Genes Dev. 12:706-720 (1998)). […]
To determine whether Pin1 interacts with pT231-tau, GST-Pin1 beads were used to isolate tau from AD brain extracts or PHFs and T231 phosphorylation detected using CP9. […]

WFYSPFLE = assay: Fluorescence anisotropy binding to fluorescein-labeled nonphosphorylated control peptide; details: nonphosphorylated peptide

phosphorylated tau, sequence (P10636 45-216 isoform P10636-2 limits assumed): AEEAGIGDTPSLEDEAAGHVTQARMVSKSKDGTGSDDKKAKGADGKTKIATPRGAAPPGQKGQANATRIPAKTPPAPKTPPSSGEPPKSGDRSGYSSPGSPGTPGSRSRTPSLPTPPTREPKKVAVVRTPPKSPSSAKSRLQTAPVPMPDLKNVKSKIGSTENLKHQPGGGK

B1: PPlase Domain: C-terminal PPIase domain (amino acids 47-163) of Pin1 (protein)
chain: NGQGEPARVRCSHLLVKHSQSRRPSSWRQEKITRTKEEALELINGYIQKIKSGEEDFESLASQFSDCSSAKARGDLGAFSRGQMQKPFEDASFALRTGEMSGPVFTDSGIHIILRTE
fold lower affinity for the phosphopeptide than the WW-domain (WFYpSPFLE (Pintide)): about 10 fold | binding to Pintide (in words) (WFYpSPFLE (Pintide); fluorescence anisotropy): No binding was detected | Kd (WFYpSPFLE (Pintide); low affinity binding site, read-out: WFYpSPFLE Kd(μM) Low affinity): 15 µM | Phosphoprotein binding activity ([1]; GST-fusion proteins with mitotic extracts, MPM2 antibody): − | binding to mitotic phosphoproteins / MPM-2 antigens (in words) ([1]; mitotic HeLa cell extracts): no specific binding | PPlase Activity (%) (peptide substrate): 90% | binding to Cdc2 phosphorylated tau (phosphorylated tau): not | WFYSPFLE Kd (WFYSPFLE): Not binding | WFYSPFLE Kd (WFYSPFLE; listed as PPIase domain): No binding was detected

— patent US6495376B1, “Methods and compositions for regulating protein-protein interactions” (Beth Israel Deaconess Medical Center, priority 1999, dated 2002)
